# Laboratory results taken from patent publication US12226454B2, “Pharmaceutical compositions and use thereof for relieving anticancer drug resistance and enhancing sensitivity of anticancer drug” (Rise Biopharmaceuticals Inc., priority 2015, dated 2025).
# B1: RISE P-8: chemokine analogue peptide, SEQ ID NO: 1; analogous protein of CXCL8 (IL-8), antagonist of CXCR1 and CXCR2 (protein)
# chain: GSKELRCQCIRSYSKPFHPKFIKELRVIPASQFCANTEIIVKLSDGRELCLDPKENWVQRVVEKFLKRAENS
# modifications: RISE P-8
# notes: analogous protein of CXCL8 (IL-8), antagonist of CXCR1 and CXCR2
# Key:
# [1] = tested on: IL-8, CXCR1 and CXCR2 mRNA in PC9GR; assay: Real-time PCR gene expression in PC9GR; type: cell-based, human; settings: 5 μM Gefitinib, 24 hrs
# Source text: (§1) 18 s was used as an internal loading control.
# […]. […] That is to say, RISE P-8 can compete with IL-8 and attenuate its feedback to regulate gene expression of IL-8, CXCR1 and CXCR2 decreased.
# [2] = tested on: IL-8, CXCR1 and CXCR2 mRNA in HCC827GR; assay: Real-time PCR gene expression in HCC827GR; type: cell-based, human
# Source text: as §1
# That is to say, RISE P-8 can compete with IL-8 and attenuate its feedback to regulate gene expression of IL-8, CXCR1 and CXCR2 decreased.
# [3] = tested on: LL/2 cells (Lewis lung carcinoma); assay: Matrigel transwell invasion assay; type: cell-based, mouse; settings: RISE P-8 200 ng/ml, 24 hr
# Description: Lewis lung carcinoma (LL/2) is a cell line established from the lung of a C57BL mouse bearing a tumor resulting from an implantation of primary Lewis lung carcinoma.
# Please refer to FIG. 13A and FIG. 13B, the present invention also represented invasion of LL/2 cells (Louis lung carcinoma) treated with CXCL8, MIP-2 or RISE P-8. The character of LL/2 cancer cell is very prone to invasion into lung and grows rapidly. The LL/2 cells were seeded onto Matrigel-coated polycarbonate filters to analyze their invasive potentials. The cells were then incubated for 24 hr in chambers and were analyzed by staining PI and counted under a microscope. Representative fields of invasive cells on the transwell membrane (at 100× magnification) and the invasion rate were shown. The LL/2 cells treated with CXCL8 (100 ng/ml), RISE P-8 (200 ng/ml), or MIP-2 (50 ng/ml) respectively. […] MIP-2 is the CXCL8 homologues in murine.
# [4] = tested on: HCC827GR; assay: Colony formation assay; type: cell-based, human; settings: RISE P-8 200 ng/mL with Gefitinib 5 μM, vs control group and IL-8 group
# Description: (§2) The colony formation assay was also performed to evaluate cell proliferation.
# [5] = tested on: PC9GR; assay: Colony formation assay; type: cell-based, human; settings: RISE P-8 200 ng/mL with Gefitinib 5 μM, vs control group and IL-8 group
# Description: as §2
# [6] = tested on: human neutrophil; assay: Modified Boyden chamber neutrophil chemotaxis to CXCL8; type: cell-based; settings: CXCL8 combined with RISE P-8 in lower compartment
# Description: Please refer to FIG. 5, neutrophil chemotaxis was assessed using modified Boyden chamber microchemotaxis assays. The CXCL8 alone or combined with RISE P-8, were placed in the lower compartment of the Boyden chamber wells and purified neutrophil in the upper compartment. The migrated neutrophil were lysed and detected. The percentages of neutrophil migration were assessed and presented with Chemotaxis Index (CI) value. That is to say, CI=(intensityRISE P-8−intensityHBSS)/(intensityCXCL8−intensityHBSS)×100%.
# [7] = tested on: IL-8 in PC9; assay: IL-8 protein expression in 3D (suspended) culture; type: cell-based, human; settings: PC9, RISE P-8 200 ng/ml, 24 hrs, 2D vs suspended
# Description: (§3) Cells underwent serum-free 16-18 hr and suspended into 10^6 cells/mL in growth medium. 2×10^6 cells/well were seeded in coating/non-coating 6 well plates and treated with/without RISE P-8 (200 ng/ml) for 24 hrs.
# [8] = tested on: IL-8 in PC9GR; assay: IL-8 protein expression in 3D (suspended) culture; type: cell-based, human; settings: RISE P-8 200 ng/ml, 24 hrs, 2D vs suspended
# Description: as §3
# [9] = tested on: HCC827GR; assay: Matrigel transwell invasion assay; type: cell-based, human
# Description: (§4) The invasion ability of cell was performed by using 8 μm pore size transwell (Corning FluoroBlok™). The transwell insert was coated with 60 μl matrigel (300 μg/ml in serum-free medium, BD Bioscience) overnight at 37° C. in 5% CO2 atmosphere. 2.5×10^4 cells in 0.2 mL of serum-free growth medium were seeded into the upper chamber coated with matrigel and then treated with drugs IL-8 (100 ng/ml) with/without RISE P-8 (200 ng/ml). After incubation for 24 hrs at 37° C. in 5% CO2, membrane of upper chamber was fixed with methanol and stained with propidium iodide (PI). The invasive cells in the bottom of membrane were imaged and counted by using an inverted fluorescence microscope (Observer.Z1, Zeiss) in five random fields of each specimen (magnification, ×100).
# [10] = tested on: PC9GR; assay: Matrigel transwell invasion assay; type: cell-based, human
# Description: as §4
# [11] = IL-8 100 ng/mL + RISE P-8 200 ng/mL vs IL-8 group
# [12] = RISE P-8 200 ng/mL, Gefitinib 5 μM, 24 hrs, vs control group
Molecule,"IL-8, CXCR1 and CXCR2 mRNA expression [1]","IL-8, CXCR1 and CXCR2 mRNA expression ([2]; 5 μM Gefitinib, 24 hrs)","CXCR1 and CXCR2 mRNA expression ([2]; gefitinib 5 μM, 24 hours)","IL-8 mRNA expression ([2]; gefitinib 5 μM, 24 hours)","invasion rate, CXCL8 stimulated ([3]; LL/2, CXCL8 100 ng/ml)","number of invasive cells, MIP-2 induced ([3]; LL/2, MIP-2 50 ng/ml)",colony formation rate [4],colony formation rate [5],neutrophil chemotaxis (Chemotaxis Index) [6],IL-8 protein expression (autocrine secretion) [7],IL-8 protein expression (autocrine secretion) [8],"invasion rate, IL-8 stimulated [9, 11]","invasion rate [9, 12]","invasion rate, IL-8 stimulated [10, 11]","invasion rate [10, 12]"
COc1cc2ncnc(Nc3ccc(F)c(Cl)c3)c2cc1OCCCN1CCOCC1 [Gefitinib],significantly enhanced,significantly enhanced,increased,increased,,,,,,,,,,,
B1,,,,,significantly suppressed CXCL8 stimulated cell invasion,significantly decreased the number of invasive cells,slow down significantly,slow down significantly,effectively antagonize neutrophil response to CXCL8,significantly attenuate IL-8 autocrine only in suspended culture,significantly attenuate IL-8 autocrine only in suspended culture,prevent significantly invasion rate,decreases invasion rate,prevent significantly invasion rate,decreases invasion rate
